According to patent US20180215804A1:

Experiments:
[1] = target: CD28/GFP fusion protein on transfected HEK293T cells (UniProt P10747); assay: flow cytometry contour plot, CD28/GFP cells co-incubated with B7-2C/Cherry cells, no peptide (negative control)
CD28-Fc (human) = CD28-Fc (human) (UniProt P10747); assay: not stated at that place; binding to human CD28 (SPR with CD28-Fc is the only affinity experiment of the filing)
[2] = target: CD28/GFP fusion protein on transfected HEK293T cells (UniProt P10747); assay: competition: flow cytometry contour plot, CD28/GFP cells co-incubated with B7-2/Cherry cells in the presence of p2TA at 1 µg ml-1 (16.0 % without peptide, Fig. 6D)
[3] = target: CD28/GFP fusion protein on transfected HEK293T cells (UniProt P10747); assay: competition: flow cytometry contour plot, CD28/GFP cells co-incubated with B7-2/Cherry cells in the presence of p2TA at 0.3 µg ml-1 (16.0 % without peptide, Fig. 6D)

| Substance | percent double labeled cells (upper right quadrant) [1] [%] | Kd (CD28-Fc (human)) [nM] | percent double labeled cells (upper right quadrant) at 1 µg ml-1 p2TA [2] [%] | percent double labeled cells (upper right quadrant) at 0.3 µg ml-1 p2TA [3] [%] |
| --- | --- | --- | --- | --- |
| B7-2C/Cherry fusion protein on transfected HEK293T cells (from UniProt P42081 24-329) (ligand) | 1.5 |  |  |  |
| (D-Ala)-p2TA-(D-Ala) (peptide) |  | 2000 | 8.1 | 10.3 |
